Results: article PMC9966940

Molecular target: SOD1-His (not stated (human or mouse cDNA cloned)) (UniProt P00441)
Sequence (P00441 whole entry): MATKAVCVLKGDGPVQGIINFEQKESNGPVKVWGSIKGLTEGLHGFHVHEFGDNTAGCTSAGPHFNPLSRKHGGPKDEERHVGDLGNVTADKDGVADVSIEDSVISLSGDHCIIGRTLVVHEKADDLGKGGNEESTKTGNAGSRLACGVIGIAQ

YWHAE protein purified by His tag from Pichia pastoris, sequence (P62258 whole entry): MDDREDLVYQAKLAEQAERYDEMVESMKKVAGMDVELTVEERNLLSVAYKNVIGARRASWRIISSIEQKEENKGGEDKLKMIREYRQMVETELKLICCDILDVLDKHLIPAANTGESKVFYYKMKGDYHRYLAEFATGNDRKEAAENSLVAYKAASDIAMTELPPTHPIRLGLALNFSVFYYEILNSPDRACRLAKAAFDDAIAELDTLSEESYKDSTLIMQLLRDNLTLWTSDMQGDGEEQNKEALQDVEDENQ

- SOD1 activity of purified SOD1 incubated with purified YWHAE at 1:1 for 0-15 h at 4 °C in SOD1 activity assay buffer, against SOD1 plus buffer; value at 4 h: 40%
Substance: YWHAE protein purified by His tag from Pichia pastoris (from UniProt P62258 1-255) (natural protein)
